Here are results for one substance from US20260028587A1.

The target in this assay is human TMEM119 (transmembrane protein 119) (human) (UniProt Q4V9L6). Nature of the assay: flow cytometry on primary human brain cell suspensions. For orientation: In flow cytometry, cells or beads pass a laser one at a time.
Sequence of UniProt Q4V9L6 (Q4V9L6 26-283): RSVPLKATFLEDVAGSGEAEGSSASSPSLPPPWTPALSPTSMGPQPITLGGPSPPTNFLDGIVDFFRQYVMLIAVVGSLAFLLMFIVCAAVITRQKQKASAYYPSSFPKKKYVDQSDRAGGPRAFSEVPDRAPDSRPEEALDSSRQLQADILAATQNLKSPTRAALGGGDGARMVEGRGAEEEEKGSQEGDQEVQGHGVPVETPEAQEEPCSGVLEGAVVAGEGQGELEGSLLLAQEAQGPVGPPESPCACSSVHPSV

Take “Mouse anti-hTMEM119 monoclonal clone A16075D (antibody)”: the percent of CD45+/CD11B+ human brain cells stained was 70 to 98%.
